The source of these data is US20130005646A1 (Novo Nordisk, published 2013).

Common to all, as to experiment: cell-based or functional assay
Assay [1] deals with T1, human amylin 3(a) receptor (human calcitonin receptor co-expressed with RAMP-3) (human) (UniProt P30988).
T1 sequence (looked up) 1: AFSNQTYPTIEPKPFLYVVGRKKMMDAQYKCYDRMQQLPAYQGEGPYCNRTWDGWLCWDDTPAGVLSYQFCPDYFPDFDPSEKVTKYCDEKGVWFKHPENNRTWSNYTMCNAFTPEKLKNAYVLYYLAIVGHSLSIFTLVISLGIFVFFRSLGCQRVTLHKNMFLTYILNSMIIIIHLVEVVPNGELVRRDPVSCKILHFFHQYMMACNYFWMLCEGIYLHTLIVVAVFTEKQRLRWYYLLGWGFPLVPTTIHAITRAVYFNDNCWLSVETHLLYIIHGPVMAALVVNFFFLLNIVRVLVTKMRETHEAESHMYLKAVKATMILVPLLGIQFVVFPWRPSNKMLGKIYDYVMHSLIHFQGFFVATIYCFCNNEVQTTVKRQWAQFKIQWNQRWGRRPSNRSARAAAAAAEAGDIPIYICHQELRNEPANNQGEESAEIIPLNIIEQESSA
T1 sequence (looked up) 2: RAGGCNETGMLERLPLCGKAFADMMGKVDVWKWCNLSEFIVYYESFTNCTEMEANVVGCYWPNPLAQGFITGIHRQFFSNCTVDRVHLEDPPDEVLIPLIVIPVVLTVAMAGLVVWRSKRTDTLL

Assay [2] deals with T2, human amylin 3(a) receptor (human calcitonin receptor + RAMP-3) (human) (UniProt P30988).
T2 sequence (looked up) 1: T1 sequence (looked up) 1
T2 sequence (looked up) 2: T1 sequence (looked up) 2

In assay [3] the target is T3, human calcitonin (a) receptor (human) (UniProt P30988).
T3 sequence (looked up): T1 sequence (looked up) 1

In assay [4] the target is T4, human amylin 3(a) receptor (human calcitonin receptor with RAMP-3) (human) (UniProt P30988).
T4 sequence (looked up) 1: T1 sequence (looked up) 1
T4 sequence (looked up) 2: T1 sequence (looked up) 2

The target in assay [5] is T5, human amylin 3(a) receptor (human calcitonin receptor co-expressed with RAMP-3) (human, UniProt P30988 25-474; O60896 24-148).
T5 sequence (looked up) 1: T1 sequence (looked up) 1
T5 sequence (looked up) 2: T1 sequence (looked up) 2

The target of assay [6] is T6, human amylin receptor (human, UniProt P30988 25-474; O60896 24-148, limits assumed).
T6 sequence (looked up) 1: T1 sequence (looked up) 1
T6 sequence (looked up) 2: T1 sequence (looked up) 2

Assay [7] has as its target T1, human amylin 3(a) receptor (human calcitonin receptor co-expressed with RAMP-3) (human). The source holds these as a separate data set.
For assay [8], the target named is T7, Amylin receptor human (human, UniProt P30988 25-474; O60896 24-148, limits assumed).
T7 sequence (looked up) 1: T1 sequence (looked up) 1
T7 sequence (looked up) 2: T1 sequence (looked up) 2

Like-named read-outs stand apart in the source and are kept apart here. Starred links: 1 amine or outer side, 2 acyl side, 3 side chain; linkers in the order of their positions; H or OH if unused. Positions of bridges follow the written chain, without caps; N, C: chain ends. Non-standard residues stand in square brackets, D forms with d. *: point of attachment. C20 diacid = O=C(O)CCCCCCCCCCCCCCCCCCC(=O)*; C18 diacid = O=C(O)CCCCCCCCCCCCCCCCC(=O)*; γGlu = O=C(O)[C@H](CCC(=O)[*:2])N[*:1]; Orn = NCCC[C@H](N)C(=O)O; AEEA = NCCOCCOCC(=O)O

Regarding {C20 diacid-γGlu}-SSGSSGCNTATCATQRLAEFLHHSSNNFGPILPPTNVGSNTY-NH2 (disulfide 7-12), the Amylin receptor human EC50 (pM) in assay [1] amounted to 253 pM. In assay [2], the Amylin receptor human EC50 is 0.253 nM. In assay [3], the CTa receptor human EC50 came to 0.432 nM and the CTa receptor human EC50 (pM) stood at 432 pM. Besides, the Amylin receptor human EC50 (pM) in assay [4] worked out at 253 pM.

On to {C18 diacid-γGlu-AEEA-AEEA}-[dR][dR][Orn]CNTATCATQRLAEFLHRSSNNFGPILPPTNVGSNTY-NH2 (disulfide 4-9 (inferred)), for which the “Amylin receptor human EC50 (pM)” value in assay [5] was determined as 29.5 pM.

Take {C20 diacid}-EERECNTATCATQRLAEFLHHSSNNFGPILPPTNVGSNTP-NH2 (disulfide 5-10 (inferred)) [N-alpha-(19-carboxynonadecanoyl)-Glu-Glu-Arg-[Glu1,Glu14,His17,Pro37]-pramlintide]: the Amylin receptor human EC50 (pM) in assay [1], in assay [6], in assay [7], in assay [4] and in assay [8] was 288 pM in each case. Moreover, the Amylin receptor human EC50 in assay [2] turned out to be 0.288 nM. Also, the CTa receptor human EC50 in assay [3] came out at 0.443 nM. In assay [3], the CTa receptor human EC50 (pM) was 443 pM.

B1: N-alpha-(19-carboxynonadecanoyl)-Glu-Glu-Arg-[Glu1,Pro37]-pramlintide (peptide)
peptide: {C20 diacid}-EERECNTATCATQRLANFLVHSSNNFGPILPPTNVGSNTP-NH2
modifications: disulfide 5-10
SMILES: CC[C@H](C)[C@H](NC(=O)[C@@H]1CCCN1C(=O)CNC(=O)[C@H](Cc1ccccc1)NC(=O)[C@H](CC(N)=O)NC(=O)[C@H](CC(N)=O)NC(=O)[C@H](CO)NC(=O)[C@H](CO)NC(=O)[C@H](Cc1c[nH]cn1)NC(=O)[C@@H](NC(=O)[C@H](CC(C)C)NC(=O)[C@H](Cc1ccccc1)NC(=O)[C@H](CC(N)=O)NC(=O)[C@H](C)NC(=O)[C@H](CC(C)C)NC(=O)[C@H](CCCNC(=N)N)NC(=O)[C@H](CCC(N)=O)NC(=O)[C@@H](NC(=O)[C@H](C)NC(=O)[C@@H]1CSSC[C@H](NC(=O)[C@H](CCC(=O)O)NC(=O)[C@H](CCCNC(=N)N)NC(=O)[C@H](CCC(=O)O)NC(=O)[C@H](CCC(=O)O)NC(=O)CCCCCCCCCCCCCCCCCCC(=O)O)C(=O)N[C@@H](CC(N)=O)C(=O)N[C@@H]([C@@H](C)O)C(=O)N[C@@H](C)C(=O)N[C@@H]([C@@H](C)O)C(=O)N1)[C@@H](C)O)C(C)C)C(=O)N[C@@H](CC(C)C)C(=O)N1CCC[C@H]1C(=O)N1CCC[C@H]1C(=O)N[C@H](C(=O)N[C@@H](CC(N)=O)C(=O)N[C@H](C(=O)NCC(=O)N[C@@H](CO)C(=O)N[C@@H](CC(N)=O)C(=O)N[C@H](C(=O)N1CCC[C@H]1C(N)=O)[C@@H](C)O)C(C)C)[C@@H](C)O
Consider B1, for which, in assay [2], the Amylin receptor human EC50 was 0.045 nM. Further, the CTa receptor human EC50 in assay [3] worked out at 0.0615 nM.

Regarding {C20 diacid-γGlu}-SSGSSGHCNTATCATQRLAEFLHHSSNNFGPILPPTNVGSNTY-NH2 (disulfide 8-13), the Amylin receptor human EC50 (pM) in assay [1], in assay [7] and in assay [4] was 306 pM each time. In assay [2], the Amylin receptor human EC50 amounted to 0.305 nM. Besides, the CTa receptor human EC50 in assay [3] stood at 0.669 nM. The CTa receptor human EC50 (pM) in assay [3] was 669 pM.
